Assay results as given in PMC11615311 (Nature Communications, 2024).

Assays:
[1] = molecular target: UAF1-USP1 complex (purified) (UniProt Q8TAF3 1-677; O94782 1-785); assay: pull-down
[2] = molecular target: BAZ1B-SMARCA5 complex (purified) (human | , UniProt Q9UIG0 1-1483; O60264 1-1052); assay: pull-down
Chain of BAZ1B-SMARCA5 complex (purified) (Q9UIG0 whole entry, chain 1 of 2): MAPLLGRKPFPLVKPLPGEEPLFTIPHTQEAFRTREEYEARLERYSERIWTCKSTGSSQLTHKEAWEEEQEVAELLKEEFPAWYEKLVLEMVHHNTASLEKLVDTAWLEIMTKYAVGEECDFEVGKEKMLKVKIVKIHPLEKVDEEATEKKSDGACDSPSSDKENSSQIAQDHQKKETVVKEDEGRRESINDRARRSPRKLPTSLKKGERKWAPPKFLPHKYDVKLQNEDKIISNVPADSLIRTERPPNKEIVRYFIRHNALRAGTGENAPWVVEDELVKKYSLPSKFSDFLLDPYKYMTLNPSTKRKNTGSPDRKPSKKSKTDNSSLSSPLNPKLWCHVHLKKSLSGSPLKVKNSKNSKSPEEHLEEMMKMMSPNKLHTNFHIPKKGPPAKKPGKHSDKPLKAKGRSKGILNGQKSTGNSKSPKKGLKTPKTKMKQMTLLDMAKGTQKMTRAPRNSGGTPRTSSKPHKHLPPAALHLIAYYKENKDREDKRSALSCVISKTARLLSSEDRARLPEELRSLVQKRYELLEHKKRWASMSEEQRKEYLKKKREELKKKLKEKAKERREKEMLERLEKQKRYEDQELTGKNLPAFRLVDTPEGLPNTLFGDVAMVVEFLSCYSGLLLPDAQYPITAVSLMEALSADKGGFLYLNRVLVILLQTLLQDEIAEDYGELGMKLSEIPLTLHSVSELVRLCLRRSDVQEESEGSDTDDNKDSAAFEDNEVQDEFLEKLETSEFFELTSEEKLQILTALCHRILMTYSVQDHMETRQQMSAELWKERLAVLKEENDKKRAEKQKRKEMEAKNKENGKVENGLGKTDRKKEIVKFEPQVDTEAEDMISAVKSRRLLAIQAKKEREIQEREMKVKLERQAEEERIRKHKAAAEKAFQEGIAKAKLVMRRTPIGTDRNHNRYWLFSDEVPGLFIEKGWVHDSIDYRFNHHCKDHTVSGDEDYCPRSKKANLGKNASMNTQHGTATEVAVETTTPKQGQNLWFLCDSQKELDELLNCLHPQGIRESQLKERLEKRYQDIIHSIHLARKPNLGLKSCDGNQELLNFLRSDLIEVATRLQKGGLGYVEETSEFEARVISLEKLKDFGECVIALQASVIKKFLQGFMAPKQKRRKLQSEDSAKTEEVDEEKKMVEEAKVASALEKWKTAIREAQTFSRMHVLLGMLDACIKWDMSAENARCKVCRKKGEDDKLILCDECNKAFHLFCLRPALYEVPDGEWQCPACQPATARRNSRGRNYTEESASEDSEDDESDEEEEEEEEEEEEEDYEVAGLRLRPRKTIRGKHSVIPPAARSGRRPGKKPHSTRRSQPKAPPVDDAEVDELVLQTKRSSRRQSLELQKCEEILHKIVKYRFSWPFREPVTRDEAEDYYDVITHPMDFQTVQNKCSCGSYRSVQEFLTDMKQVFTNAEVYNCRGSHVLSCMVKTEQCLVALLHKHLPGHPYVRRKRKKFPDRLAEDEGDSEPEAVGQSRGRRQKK
Chain of BAZ1B-SMARCA5 complex (purified) (O60264 whole entry, chain 2 of 2): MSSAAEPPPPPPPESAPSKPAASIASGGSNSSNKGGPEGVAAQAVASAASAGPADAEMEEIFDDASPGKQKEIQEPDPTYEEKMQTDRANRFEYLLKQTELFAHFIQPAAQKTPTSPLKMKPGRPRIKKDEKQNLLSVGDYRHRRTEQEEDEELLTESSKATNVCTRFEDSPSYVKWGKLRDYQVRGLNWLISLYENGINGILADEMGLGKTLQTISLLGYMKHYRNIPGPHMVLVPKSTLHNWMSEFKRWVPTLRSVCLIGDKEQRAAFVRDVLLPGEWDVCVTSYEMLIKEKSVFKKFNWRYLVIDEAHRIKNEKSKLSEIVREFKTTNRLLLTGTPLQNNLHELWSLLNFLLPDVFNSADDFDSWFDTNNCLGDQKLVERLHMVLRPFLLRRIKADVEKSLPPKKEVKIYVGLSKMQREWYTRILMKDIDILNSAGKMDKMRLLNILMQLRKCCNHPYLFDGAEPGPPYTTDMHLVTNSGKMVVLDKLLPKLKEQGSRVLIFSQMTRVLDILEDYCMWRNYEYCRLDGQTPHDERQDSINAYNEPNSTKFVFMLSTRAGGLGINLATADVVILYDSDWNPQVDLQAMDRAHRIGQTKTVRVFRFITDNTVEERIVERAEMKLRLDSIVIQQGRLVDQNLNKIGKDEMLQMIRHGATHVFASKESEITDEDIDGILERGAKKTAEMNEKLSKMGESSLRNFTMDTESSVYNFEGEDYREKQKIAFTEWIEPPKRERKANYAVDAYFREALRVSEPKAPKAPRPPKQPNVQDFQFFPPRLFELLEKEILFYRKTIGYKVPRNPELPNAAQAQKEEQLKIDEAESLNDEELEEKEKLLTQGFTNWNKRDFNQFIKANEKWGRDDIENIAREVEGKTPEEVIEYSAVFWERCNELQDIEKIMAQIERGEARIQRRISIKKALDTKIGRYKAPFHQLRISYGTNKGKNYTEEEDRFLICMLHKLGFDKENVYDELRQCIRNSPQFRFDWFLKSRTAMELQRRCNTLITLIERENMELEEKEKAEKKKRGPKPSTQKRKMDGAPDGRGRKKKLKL

Chain of UAF1-USP1 complex (purified) (Q8TAF3 whole entry, chain 1 of 2): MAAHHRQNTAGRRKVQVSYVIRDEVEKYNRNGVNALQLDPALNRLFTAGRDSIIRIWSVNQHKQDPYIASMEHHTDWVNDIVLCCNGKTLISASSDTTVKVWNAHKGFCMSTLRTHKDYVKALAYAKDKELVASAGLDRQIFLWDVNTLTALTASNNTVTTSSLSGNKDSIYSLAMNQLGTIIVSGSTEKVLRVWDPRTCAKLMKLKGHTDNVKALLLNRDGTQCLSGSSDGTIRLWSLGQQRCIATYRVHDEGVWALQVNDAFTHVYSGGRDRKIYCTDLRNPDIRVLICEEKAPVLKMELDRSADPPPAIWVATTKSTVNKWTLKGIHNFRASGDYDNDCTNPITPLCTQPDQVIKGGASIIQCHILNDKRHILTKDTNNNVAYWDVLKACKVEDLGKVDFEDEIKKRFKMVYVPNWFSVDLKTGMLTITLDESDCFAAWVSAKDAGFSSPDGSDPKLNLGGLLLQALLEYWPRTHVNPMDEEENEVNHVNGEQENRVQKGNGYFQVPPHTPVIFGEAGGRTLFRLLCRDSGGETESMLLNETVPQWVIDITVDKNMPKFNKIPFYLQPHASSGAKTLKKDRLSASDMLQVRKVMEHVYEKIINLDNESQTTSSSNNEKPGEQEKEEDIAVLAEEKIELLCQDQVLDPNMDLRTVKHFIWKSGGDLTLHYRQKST
Chain of UAF1-USP1 complex (purified) (O94782 whole entry, chain 2 of 2): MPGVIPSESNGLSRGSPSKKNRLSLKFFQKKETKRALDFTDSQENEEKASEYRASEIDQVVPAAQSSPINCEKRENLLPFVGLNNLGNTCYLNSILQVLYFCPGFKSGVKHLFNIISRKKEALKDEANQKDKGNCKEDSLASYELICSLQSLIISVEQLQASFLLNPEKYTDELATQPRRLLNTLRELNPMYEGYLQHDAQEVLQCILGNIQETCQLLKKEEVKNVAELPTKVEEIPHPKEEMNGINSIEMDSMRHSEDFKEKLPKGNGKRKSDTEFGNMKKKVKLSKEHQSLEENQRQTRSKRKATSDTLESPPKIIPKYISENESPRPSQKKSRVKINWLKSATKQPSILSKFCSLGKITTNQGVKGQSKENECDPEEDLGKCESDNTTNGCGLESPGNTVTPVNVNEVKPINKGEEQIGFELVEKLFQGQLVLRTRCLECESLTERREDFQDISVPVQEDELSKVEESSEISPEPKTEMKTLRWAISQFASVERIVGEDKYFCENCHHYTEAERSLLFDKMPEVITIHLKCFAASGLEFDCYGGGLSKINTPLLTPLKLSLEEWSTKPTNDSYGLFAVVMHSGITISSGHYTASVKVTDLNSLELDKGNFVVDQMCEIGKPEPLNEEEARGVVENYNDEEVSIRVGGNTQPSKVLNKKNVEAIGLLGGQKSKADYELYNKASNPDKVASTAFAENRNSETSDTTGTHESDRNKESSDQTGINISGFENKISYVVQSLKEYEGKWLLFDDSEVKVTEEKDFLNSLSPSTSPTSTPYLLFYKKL

binding result [1]: binds
binding result [2]: binds
B1: MBP-tagged ATAD5 (1–603) (domain or fragment, human, UniProt Q96QE3 1-603, looked up)
chain: MVGVLAMAAAAAPPPVKDCEIEPCKKRKKDDDTSTCKTITKYLSPLGKTRDRVFAPPKPSNILDYFRKTSPTNEKTQLGKECKIKSPESVPVDSNKDCTTPLEMFSNVEFKKKRKRVNLSHQLNNIKTENEAPIEISSDDSKEDYSLNNDFVESSTSVLRYKKQVEVLAENIQDTKSQPNTMTSLQNSKKVNPKQGTTKNDFKKLRKRKCRDVVDLSESLPLAEELNLLKKDGKDTKQMENTTSHANSRDNVTEAAQLNDSIITVSYEEFLKSHKENKVEEIPDSTMSICVPSETVDEIVKSGYISESENSEISQQVRFKTVTVLAQVHPIPPKKTGKIPRIFLKQKQFEMENSLSDPENEQTVQKRKSNVVIQEEELELAVLEAGSSEAVKPKCTLEERQQFMKAFRQPASDALKNGVKKSSDKQKDLNEKCLYEVGRDDNSKKIMENSGIQMVSKNGNLQLHTDKGSFLKEKNKKLKKKNKKTLDTGAIPGKNREGNTQKKETTFFLKEKQYQNRMSLRQRKTEFFKSSTLFNNESLVYEDIANDDLLKVSSLCNNNKLSRKTSIPVKDIKLTQSKAESEASLLNVSTPKSTRRSGRISST
